Laboratory results reported in paper PMC7032593 (Nature cell biology, 2019).

B1: ATG3 WT (enzyme)
chain: not shown
B2: ATG12–ATG5 conjugate (GST-ATG12 with untagged ATG5) (complex, human)
chain 1: MAEEPQSVLQLPTSIAAGGEGLTDVSPETTTPEPPSSAAVSPGTEEPAGDTKKKIDILLKAVGDTPIMKTKKWAVERTRTIQGLIDFIKKFLKLVASEQLFIYVNQSFAPSPDQEVGTLYECFGSDGKLVLHYCKSQAWG
chain 2: MTDDKDVLRDVWFGRIPTCFTLYQDEITEREAEPYYLLLPRVSYLTLVTDKVKKHFQKVMRQEDISEIWFEYEGTPLKWHYPIGLLFDLLASSSALPWNITVHFKSFPEKDLLHCPSKDAIEAHFMSCMKEADALKHKSQVINEMQKKDHKQLWMGLQNDRFDQFWAINRKLMEYPAEENGFRYIPFRIYQTTTERPFIQKLFRPVAADGQLHTLGDLLKEVCPSAIDPEDGEKKNQVMIHGIEPMLETPLQWLSEHLSYPDNFLHISIIPQPTD

Legend:
[1] = biological target: GST-ATG12-5–16L1β complex (human, UniProt O94817 1-140; Q9H1Y0 1-275; Q676U5 1-607); assay: pull-down
Chain of GST-ATG12-5–16L1β complex (Q676U5 whole entry, canonical isoform, one chain of several): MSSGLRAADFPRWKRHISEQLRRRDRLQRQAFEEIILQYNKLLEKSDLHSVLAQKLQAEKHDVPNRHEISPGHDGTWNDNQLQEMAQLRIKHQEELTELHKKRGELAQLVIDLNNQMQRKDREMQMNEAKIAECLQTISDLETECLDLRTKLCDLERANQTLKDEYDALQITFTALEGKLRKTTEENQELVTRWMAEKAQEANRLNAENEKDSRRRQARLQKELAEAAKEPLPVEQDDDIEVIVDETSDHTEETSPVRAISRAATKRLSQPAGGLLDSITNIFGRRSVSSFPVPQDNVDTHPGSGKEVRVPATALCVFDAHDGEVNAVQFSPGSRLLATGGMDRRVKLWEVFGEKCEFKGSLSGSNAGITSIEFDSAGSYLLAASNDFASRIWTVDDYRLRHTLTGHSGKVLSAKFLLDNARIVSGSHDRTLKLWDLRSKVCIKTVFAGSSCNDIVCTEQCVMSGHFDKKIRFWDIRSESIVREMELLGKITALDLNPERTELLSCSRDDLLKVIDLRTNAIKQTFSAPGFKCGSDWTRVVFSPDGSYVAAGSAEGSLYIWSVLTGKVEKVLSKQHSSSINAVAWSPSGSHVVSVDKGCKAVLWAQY

[2] = biological target: ATG16L1β (full-length human ATG16L1, β isoform) (human, UniProt Q676U5 1-607); assay: tandem affinity co-purification
Chain of ATG16L1β (full-length human ATG16L1, β isoform) (Q676U5 whole entry, canonical isoform): as the sequence (Q676U5 whole entry, canonical isoform, one chain of several) above

| Binder | binding result [1] | binding result [2] |
| --- | --- | --- |
| B1 | binds | – |
| B2 | – | binds |
